Data taken from patent publication US20220177587A1, “METHODS AND USES OF VARIANT CD80 FUSION PROTEINS AND RELATED CONSTRUCTS” (Alpine Immune Sciences, Inc., priority 2018, published 2022).

Columns and labels:
human PD-L1 (human) [1] = molecular target: human PD-L1 (human) (UniProt Q9NZQ7); assay: flow cytometry; PD-L1 MFI over CD28 MFI of the same protein
CD28 (human) [2] = molecular target: CD28 (human) (UniProt P10747); assay: flow cytometry, Jurkat/IL2 reporter cells (CD28)
CD28 (human) [3] = molecular target: CD28 (human) (UniProt P10747); assay: flow cytometry, Jurkat cells (CD28); vs WT CD80 ECD-Fc (Abcam)
human CTLA-4 (human) [4] = molecular target: human CTLA-4 (human) (UniProt P16410); assay: flow cytometry, CHO cells expressing huCTLA-4
human CTLA-4 (human) [5] = molecular target: human CTLA-4 (human) (UniProt P16410); assay: flow cytometry, CHO/huCTLA-4 cells; vs WT CD80 ECD-Fc (Abcam)
human PD-L1 (human) [6] = molecular target: human PD-L1 (human) (UniProt Q9NZQ7); assay: flow cytometry, CHO cells expressing huPD-L1
human PD-L1 (human) [7] = molecular target: human PD-L1 (human) (UniProt Q9NZQ7); assay: flow cytometry, CHO/huPD-L1 cells; vs WT CD80 ECD-Fc (Abcam)
human CTLA-4 (human) [8] = molecular target: human CTLA-4 (human) (UniProt P16410); assay: flow cytometry, CHO cells stably expressing CTLA4
human CTLA-4 (human) [9] = molecular target: human CTLA-4 (human) (UniProt P16410); assay: flow cytometry, CHO/CTLA4 cells; MFI over CD80 WT IgV-Fc
human PD-L1 (human) [10] = molecular target: human PD-L1 (human) (UniProt Q9NZQ7); assay: flow cytometry, CHO cells stably expressing PD-L1
human PD-L1 (human) [11] = molecular target: human PD-L1 (human) (UniProt Q9NZQ7); assay: flow cytometry, CHO/PD-L1 cells; MFI over CD80 WT IgV-Fc
CD28 (human) [12] = molecular target: CD28 (human) (UniProt P10747); assay: flow cytometry, Jurkat cells (CD28)
CD28 (human) [13] = molecular target: CD28 (human) (UniProt P10747); assay: flow cytometry, Jurkat cells (CD28); MFI over CD80 WT IgV-Fc

human PD-L1 (human), sequence (Q9NZQ7 19-290): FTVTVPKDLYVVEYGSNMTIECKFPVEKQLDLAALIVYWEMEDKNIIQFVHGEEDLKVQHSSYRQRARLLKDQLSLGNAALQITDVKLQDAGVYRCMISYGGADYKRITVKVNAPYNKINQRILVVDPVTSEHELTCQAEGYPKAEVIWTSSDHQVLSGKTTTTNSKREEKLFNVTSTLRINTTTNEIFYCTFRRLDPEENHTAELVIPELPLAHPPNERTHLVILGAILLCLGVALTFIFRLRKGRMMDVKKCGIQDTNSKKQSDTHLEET
human CTLA-4 (human), sequence (P16410 36-223): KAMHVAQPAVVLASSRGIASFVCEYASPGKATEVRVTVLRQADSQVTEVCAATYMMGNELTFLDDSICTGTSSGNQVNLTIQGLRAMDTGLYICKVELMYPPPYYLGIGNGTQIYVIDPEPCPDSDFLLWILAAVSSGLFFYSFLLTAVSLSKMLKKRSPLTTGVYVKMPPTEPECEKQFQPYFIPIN

Binder | Ratio of PDL1:CD28 (human PD-L1 (human) [1]) | MFI at 33.3 nM (CD28 (human) [2]) [MFI] | Fold change to WT CD80 (CD28 (human) [3]) [fold] | MFI at 33.3 nM (human CTLA-4 (human) [4]) [MFI] | Fold change to WT CD80 (human CTLA-4 (human) [5]) [fold] | MFI at 33.3 nM (human PD-L1 (human) [6]) [MFI] | Fold change to WT CD80 (human PD-L1 (human) [7]) [fold] | MFI at 33.3 nM (human CTLA-4 (human) [8]) [MFI] | Fold change to WT CD80 (human CTLA-4 (human) [9]) [fold] | MFI at 33.3 nM (human PD-L1 (human) [10]) [MFI] | Fold change to WT CD80 (human PD-L1 (human) [11]) [fold] | MFI at 33.3 nM (CD28 (human) [12]) [MFI] | Fold change to WT CD80 (CD28 (human) [13]) [fold]
variant CD80 IgV-Fc E35D/V68M/L85Q (Fc fusion) VIHVTKEVKEVATLSCGHNVSVEELAQTRIYWQKDKKMVLTMMSGDMNIWPEYKNRTIFDITNNLSIMILALRPSDEGTYECVVQKYEKDAFKREHLAEVTLSVKAD | 78.4 | 76.2 | 0.1 | 42800 | 1.1 | 5970 | 46.6 |  |  |  |  |  | 
variant CD80 IgV-Fc (inert) H18V/A26D/E35D/M47V/V68M/A71G/D90G (Fc fusion) VIHVTKEVKEVATLSCGVNVSVEELDQTRIYWQKDKKMVLTMMSGDVNIWPEYKNRTIFDITNNLSIMILGLRPSDEGTYECVVLKYEKGAFKREHLAEVTLSVKAD |  |  |  |  |  |  |  | 22100 | 16 | 67500 | 409 | 6250 | 61.3
variant CD80 IgV-Fc (inert) H18V/A26K/E35D/M47L/V68M/A71G (Fc fusion) VIHVTKEVKEVATLSCGVNVSVEELKQTRIYWQKDKKMVLTMMSGDLNIWPEYKNRTIFDITNNLSIMILGLRPSDEGTYECVVLKYEKDAFKREHLAEVTLSVKAD |  |  |  |  |  |  |  | 22900 | 16.6 | 67300 | 408 | 3640 | 35.7
variant CD80 IgV-Fc (inert) H18Y/A26P/E35D/M47I/V68M/A71G (Fc fusion) VIHVTKEVKEVATLSCGYNVSVEELPQTRIYWQKDKKMVLTMMSGDINIWPEYKNRTIFDITNNLSIMILGLRPSDEGTYECVVLKYEKDAFKREHLAEVTLSVKAD |  |  |  |  |  |  |  | 12200 | 8.8 | 54500 | 330 | 5120 | 50.2
variant CD80 IgV-Fc (inert) H18F/A26N/E35D/M47V/V68M/A71G/D90K (Fc fusion) VIHVTKEVKEVATLSCGFNVSVEELNQTRIYWQKDKKMVLTMMSGDVNIWPEYKNRTIFDITNNLSIMILGLRPSDEGTYECVVLKYEKKAFKREHLAEVTLSVKAD |  |  |  |  |  |  |  | 15200 | 11 | 22400 | 136 | 3170 | 31.1
variant CD80 IgV-Fc D46V/L85Q (Fc fusion) VIHVTKEVKEVATLSCGHNVSVEELAQTRIYWQKEKKMVLTMMSGVMNIWPEYKNRTIFDITNNLSIVILALRPSDEGTYECVVQKYEKDAFKREHLAEVTLSVKAD | 16.8 | 131 | 0.2 | 41900 | 1 | 2200 | 17.2 |  |  |  |  |  | 
variant CD80 IgV-Fc (inert) H18T/A26N/E35D/M47L/V68M/A71G (Fc fusion) VIHVTKEVKEVATLSCGTNVSVEELNQTRIYWQKDKKMVLTMMSGDLNIWPEYKNRTIFDITNNLSIMILGLRPSDEGTYECVVLKYEKDAFKREHLAEVTLSVKAD |  |  |  |  |  |  |  | 20900 | 15.1 | 68500 | 415 | 1370 | 13.4
variant CD80 IgV-Fc (inert) H18C/A26P/E35D/M47L/V68M/A71G (Fc fusion) VIHVTKEVKEVATLSCGCNVSVEELPQTRIYWQKDKKMVLTMMSGDLNIWPEYKNRTIFDITNNLSIMILGLRPSDEGTYECVVLKYEKDAFKREHLAEVTLSVKAD |  |  |  |  |  |  |  | 23400 | 16.9 | 67000 | 406 | 1910 | 18.7
variant CD80 IgV-Fc (inert) H18Y/A26P/E35D/M47Y/V68I/A71G/D90G (Fc fusion) VIHVTKEVKEVATLSCGYNVSVEELPQTRIYWQKDKKMVLTMMSGDYNIWPEYKNRTIFDITNNLSIIILGLRPSDEGTYECVVLKYEKGAFKREHLAEVTLSVKAD |  |  |  |  |  |  |  | 8280 | 6 | 27300 | 165 | 1820 | 17.8
variant CD80 IgV-Fc (inert) H18Y/E35D/M47V/V68L/A71G/D90G (Fc fusion) VIHVTKEVKEVATLSCGYNVSVEELAQTRIYWQKDKKMVLTMMSGDVNIWPEYKNRTIFDITNNLSILILGLRPSDEGTYECVVLKYEKGAFKREHLAEVTLSVKAD |  |  |  |  |  |  |  | 16500 | 11.9 | 47900 | 290 | 2550 | 25
